Reference: the DeepSol protein solubility set

Assay: soluble on expression in E. coli; label from the status in PepcDB or PDB records

Soluble on expression in E. coli, not soluble:
MGSDKIHHHHHHMGSAAQFRRWIRPSARLCNAPFIRATVQVHWRNLYLLSRRSAPRRFHADQEKDMTPRSIIAAGALFAAVATAPAAWASSTYMGALTEAEVLAAQKAWGEALVAISREHEAGGQAKAKALASTVLDKAYGYNLGPVLFKPTLTMAPQTFRTTKDGALAYFVGGDPNYPNDKGFALQGWRSVAIKNAAIQIHGDVATTTGNVMITDKNGNVTTVDKTWAFKKTDDGAIRIVVHHSSLPYTAK
MGSDKIHHHHHHMGSGSVIWRLLPPAQGDPTTELAAGAAMLAGLKETNCPAIRWYAAGSRPALVIGSGQKLSDVDHTALRQQGVTLHRRSSGGTAVLFVPGLLMQDIALPLDHPLYHPDVSESYRWLGDVWQATLAQFGIHTSLIDIAAARADRQTLDPLIARACFGGQSPYEVLVAGRKLVGFAQIRRREGVLFQVGLYTHWPGRQLATLLAMNEAERTIFGERLADRVTDLVTVCESPPDIHQIAAAFAMVLRQRYEVSITAADWTEAEREAMIAAQARFAPLRLEG
MGSDKIHHHHHHMGSKKLTVGSDSHRLSKSSFSSNKSSHSATKDQPIDTDDIDEDDESGHNIILNIISQLRPGCDLTRITLPTFILEKKSMLERVTNQLQFPEFLLQAHSEKDPLKRFLYVMKWYLAGWHIAPKAVKKPLNPVLGEYFTAYWDLPNKQQAYYISEQTSHHPPECAYFYMIPESSIRVDGVVIPKSRFLGNSSAAMMDGSTVLQFLDIKDGNGKPEKYVLTQPNVYVRGILFGKMRIELGDHMIIKSPNFQADIEFKTKGYVFGTYDAIEGTVKDYDGNAYYEISGKWNDVMYLKDLKQPRSSPKVFLDTHKESPLRPKVRPLSEQGEYESRKLWKKVTDALAVRNHPVATEEKFQIEDHQRQLAKKRIEDGVEFHPKLFRRSKPGEDLDYCIYKNIPVDEDPEKQIRSILQIAPILPGQQFTDKFFIPAFEKIKSQKKMIENEKQNPAKQ
MGSDKIHHHHHHMGSTFMGIETGRRALTTNQWALQSTGNNIANAGTAGFSRQRLVMATTEQLSMAIGTGKMGQIGTGVRGEILERVRDVMLDKQYRDEATKTAYYGTKEAAFGRMEDIINEPSDTGLAKAFDGFWESLQTLSTNPQDSGARSVVRQKAETLTQTFNYMSKSLSQVKEDLKSEIDVSTKKVNDLFKKIHNINAEIHTVEPLGVLPNALYDERDRYMDELAQYVDFEKVSVDAEAITQGKLGNATKTAEGRIDILVKLPNGNKLRAVDSDVAQAGILSFTTNDKGLYTGFETNSQTISFDAAGGGFANGRIAGLLEMYGQIKNGQPTGEFVKMQSNLDEMATTFATAFNAAHAANFKKDKTNGTDQFFVATSGSISAATIAVGQDIKGSLDNIATSTDGNIGDSAGALKLAQMKTTSLLFATSVTTTTIGSFYQNVIGDMGVATDQVGRLGQSSAVLMDSAEQRRMSVSAVSIDEEMTMMIQYQHAYNAAARNITTVDEMLDKIINGMGIVGR
MGSDKIHHHHHHMGVQETKIYPINTGWLEADLGTYIFWKGPAGQKIWNPVYCHYVDTGTHKILIDTGLCDEERATKYHHKCDKRGCLQVHEHLEQKLGVHPDEIDAVVFTHLHWDHVQNMKEFKNARYIAPKAEIEMAFNPLPLYYRTYESGYLGIEPAYTGCVFEAVEDECEVLPGITMFHTPGHSVGHMAVTVATSAGDIVVAGDAIFQERNMEPNEAEGWRYWVPARFVNSYEGWKSVEELDKRADYILACHDKVANARSNVFPYEGMPIRKRRQHIPGFKFYFGDMPAGATDKAAPALTADEAKEYLANLVPPTPD
MGSDKIHHHHHHMGVSKRTVMRYQTCREPGSLSASDKFKSVEAALESHVKEEEARYSGKGRGDGSLWHHLVRVARLAEKLGRSEGLDPATCRLAGLFHDAGKFSGGTYHQDDRPEEERSVDILVELAGKHDLDRDIVDRIARSFQQLYRDGENQTPLTRVLFDADNLDKLGFLGIANYFIKTGLRGKGVSANMLYQLTAELTYARHAADCMATPAGRELALRKAPETYRFILDLLQSLRDDGIFDFKVEEVMFDQLLLDVVSPYSCECRGTLERRLWNVRGIKCLEIHLEHSCPRCEARHEIRFCTPKLRTQGEKNTGDLFRTSQLDIRQAADSYF
MGSDKIHHHHHHMGYLKTMVDVMTTEMNAIRCLIDEAGIEYESIVSEIANCEGKVIFMGVGKSAHIGKKLAATFASTGTPSFFVHATEAVHGDLGMIESKDITILISNSGNSMEVVNCIKYIKAIGSKTIAFTSNRNSVLAKECDYALIYPAKDEADHLNLAPTTSSTITLVLGDSIACALSKSSNFGSSDFYKYHPGGSLGEKLKTANNG
MGSDKIHHHHHHMHHWESLVGEQAIPFFRWRWLAALEDSSSISAKHGWQPLHLALWRDDMPVAVAPLYLKGHSYGEFVFDQAFARLAGDLGLGYYPKLLGMSPVSPVQGYRFYVAPGENEAELTVLMLETIDAFARRNQILSCNFLYVDPHWRPLAEAAGCATWLNQQSLWSADGQSDFSAYLNSFNANQRRNIKRERKAVQQAGLTVSALTGVELDVQLLRCMHGFYEQHCARWGPWGSKYLSEAFFEALADSSLRDQVVLFSAHRVSPREPVAMSLCIQDGQMLWGRYWGSKEEIDCLHFEVCYYAPIAWALENGLENFDPGAGGQHKRRRGFVAKPHASLHRWYEPRMDALIRGWLRKVNPLMLEEIESANADLPFRVEPAPQLIVE
MGSDKIHHHHHHMHISNMDGLDILSLKILVSLYENKSATYVSKALDIPAPKISRSLKNLREIFGDELFIRRKYGLFPNEFATHLYPIAKEAIECTDKFHKARAANANLVKTHIEIAAPGLIAYAFPKALMQAIKDEQKLMHINITPWSMHTTQDIINGDTTLGICCNKSTADVAAFGDKLLTTTLQSMDKVYLLASRNHPIFKREITLETIAEYPYVNTDLGNPSSKLSPYQEFCLKSNIKLNTEITITSISSLFEYLGESQALSLLPYRVVYEMVSDVAELHTCQLSQLEAERLYAHAEAPTIFLVQKNQPNKVNDDLVWLSGQIKKIVDHII
MGSDKIHHHHHHMHPKNAWYVACTADEVADKPLGRQICNEKMVFYRDQNQQVVAVEDFCPHRGAPLSLGYVENGQLVCGYHGLVMGGDGKTASMPGQRVRGFPCNKTFAAIERYGFIWVWPGEREKADPALIHHLEWAVSDEWAYGGGLFHIQCDYRLMIDNLMDLTHETYVHASSIGQKEIDEAPPVTTVEGEEVITARHMENIMPPPFWKMALRGNNLADDVPVDRWQICRFTPPSHVLIEVGVAHAGKGGYHAPHEFKASSIVVDFITPETDTSIWYFWGMARNFKPADEQLTATIREGQHKIFSEDLEMLERQQLNLLQHPHRNLLKLNIDAGGVQSRKILERLIAAEQADTADQIPVAAVK
MGSDKIHHHHHHMHQLKREALLREAIAAFNQKGFHATSLGDIATSLGVTKAALYHYFPNKHALLFEAFAEALRVGFEAIEAAERHGGSGLDKLQMAVREYLQVTLSEMSRCVIITEEHALEPQDRAKIVEQRDRFEAKLRGFVREGIEDGSVIPCDPKLAIFSIFGAVNWVPKWFSDSGNWSNKQLAKGMSELLCRAVARHPAEAFAPDIGKMRVE
MGSDKIHHHHHHMHQYTNIKKAIQLSNSFWDVTTAAGMANIATRNLGNGRHEAVASGRQFTNMSSYSYLGLDSHPAILRAAADAVMNTGSLNTSISRIRVQFDILQQAEEALASLVDAETLTVPSCAAAAAATLPLLASGALTGDVAPLMVFDKNAHFCLNMMKPICADETEIQTIRHNDLNALEDLCKTHQRVAYVADGVYSTGGMAPVKELLALQDKYGLFLFFDEAHGLSTLGHLGRGLVLEEMGAINDRTLIVTSLNKGFGASGGAIFLGPRGDAERRKLATRFGGPVTWSQRINTAGLGAIIESVAVHKSAELPALQQKLQDNIRLFDQHVASENSGDRLPIRFVSIGSEERTILYAKSLLEDGYYTSPIFFPVIAKGRAGLRIMIRANMTTEEIERFGACLKQLRASHE
MGSDKIHHHHHHMHRAGDSCTRDRRSRTAWRAALFQPVRRQRPVSEQCVRCCSSNEQWLDVCRYGSGAQGVGGVRHGNCLSPFTFISRLRRSGMTTDTFGGDLPASTLVPQPSFCVQTRVAHDADEQARNLHGWSQTYDQLTAGCFVGGLTELCLDHMQLFVETTSHTLRQTCEVQKDAYWFGIPACAAGSGRIDAQVIAGDALAFRPGGIEFELLTSAGYEIFGVVVKGEVLRRYAAQVERVGLADPVPNTQVVPIGMARKAQLCATLRQLLDDGAARGTPLSSVARNNLQAAVLASLFDVGALPASEPVAMPARPRRQSIVSEARDYVLLNRDRAVSVPELCEQLHVSRRTLQYCFQDVLGMAPATYLRAIRLNGARRDLSNASRESRSVQDVAAAWGFWHLSQFATDYRKLFGMRPSETLKAATGTRVERAGAFNAVALAHH
MGSDKIHHHHHHMHVYESDVSWIDDRRTEVSVGDHRIEVDSPPEFGGPEGQLYPETLFPSVLASCLLTTFLEFKDRMGINLKSWNSHVTAELGPSPEKGFKFHRIKIHVKIGVNDEDKEKIPRAMQLAEKYCFISRAIRNNVEEIVDYEFV
MGSDKIHHHHHHMIACENSGHSIPDDFPEVRKIVEAGVTTNPKKDYELSRYACYLIVQNGDPRKEVIALGQTYFAIQTYRQEVADHFNELDEDNRRLVVRGDIKQWNQMLAETAHNAGVITNEEFAIFQNAGYMGLYGGLDVEGILAAVYQSVFGGDVYLSLEEKVANLLFNEIGNSQVV
MGSDKIHHHHHHMIDFSLCEVNKFRAYGGANGNKINILYEGNSYMLKFSPVPSRNKAMSYTNGCISEYLACHIFASLGFKTQETLLGTYTDPRGKEKVVVACGDFTEGGKRLIEFAHLKNTCISSEQNGYGKELSSIMQAIDEQMLLPPDQLRDFFWDMFIADALLGNFDRHNGNWGILVDEQSKTAEIAPVYDCGSCLYPQLAAKDMGDVLNSEDEIDRRVYVFPTSSIEEDGKKISYFEFISSLRNPDCTAALKRVSARIDMEKIRMLIDKTPTLLPVQKEFYTVIISERKAKIIDYSMEKLMKLKGQDLERDEQQNGGLQFTM
MGSDKIHHHHHHMIEIIPAIDIIDGKCVRLSQGDYDSKKVYNENPVEVAKEFEANGVRRLHVVDLDGAASHHVVNHRVLEQIATRTSLIVDFGGGVKSDEDLKIAFESGAQMVTGGSVAVKDPELFCHWLEVYGSEKIILGADVKEHKIAVNGWKDESACELFPFLEDYINKGIQKVICTDISCDGMLKGPSIDLYKEMLEKFPNLYLMASGGVSNVDDIIALNEAGVPGVIFGKALYEGHITLKDLRIFL
MGSDKIHHHHHHMIFVGCSGWSYEEWNGVFYPKSKINKLKFYSTMFNTVEVNSTFYREINNDIINRWIETVRGKNFIFSIKVPQNITHKAILEKDSNSKSLYETFIDKTVRPIRNARMLGAVLVQLPPSFNSNLQTELLDTICCENEYRTAVEVRNKDLYSNEELRKELEKRGIAIVDVDSTEHPLSNLNSGLKWSYVRLHGRAQLGWKSQNPYDYRYSEQEISDLSSKIMAKNYDEIFVYFNNHPRGSAPINALKMASCLGISNNWFF
MGSDKIHHHHHHMIGKRFFQTTSKKIAFAFDIDGVLFRGKKPIAGASDALKLLNRNKIPYILLTNGGGFSERARTEFISSKLDVDVSPLQIIQSHTPYKSLVNKYSRILAVGTPSVRGVAEGYGFQDVVHQTDIVRYNRDIAPFSGLSDEQVMEYSRDIPDLTTKKFDAVLVFNDPHDWAADIQIISDAINSENGMLNTLRNEKSGKPSIPIYFSNQDLLWANPYKLNRFGQGAFRLLVRRLYLELNGEPLQDYTLGKPTKLTYDFAHHVLIDWEKRLSGKIGQSVKQKLPLLGTKPSTSPFHAVFMVGDNPASDIIGAQNYGWNSCLVKTGVYNEGDDLKECKPTLIVNDVFDAVTKTLEKYA
